Source: paper doi:10.1101/2024.08.23.608890 (bioRxiv, 2024)

Molecular target: T1, Paeniclostridium sordellii lethal toxin TcsL, receptor binding domain (RBD) (Paeniclostridium sordellii, UniProt Q46342)
T1 sequence: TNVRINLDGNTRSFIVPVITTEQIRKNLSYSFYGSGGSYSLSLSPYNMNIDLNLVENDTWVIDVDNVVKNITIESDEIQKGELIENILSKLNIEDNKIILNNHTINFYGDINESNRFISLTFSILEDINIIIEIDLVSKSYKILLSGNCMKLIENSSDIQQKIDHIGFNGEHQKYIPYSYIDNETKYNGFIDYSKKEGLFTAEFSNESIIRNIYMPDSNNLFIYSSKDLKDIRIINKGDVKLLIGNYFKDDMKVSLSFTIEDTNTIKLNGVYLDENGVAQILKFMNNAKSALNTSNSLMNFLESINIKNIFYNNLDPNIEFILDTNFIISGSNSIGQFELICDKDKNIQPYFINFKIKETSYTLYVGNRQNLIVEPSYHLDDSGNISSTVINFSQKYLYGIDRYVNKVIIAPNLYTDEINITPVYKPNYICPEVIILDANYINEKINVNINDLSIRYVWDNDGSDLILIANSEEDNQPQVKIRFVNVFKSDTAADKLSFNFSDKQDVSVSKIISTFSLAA
Assay: SPR

B1: B4, ProteinMPNN-optimized de novo designed TcsL-binding miniprotein (designed binder)
chain: MSGTEEIIKEIKKMKEKGEKASSIIDLLKKAGYSEIAKKAELAALKSENMTEAAAEKAIEELK
- Kd: 0.057 nM
